{
  "source": "IntAct's records for PubMed 18423203",
  "parents": {"B1": {"name": "Peripheral plasma membrane protein CASK (Homo sapiens), O14936 (parent)", "chain": "MADDDVLFEDVYELCEVIGKGPFSVVRRCINRETGQQFAVKIVDVAKFTSSPGLSTEDLKREASICHMLKHPHIVELLETYSSDGMLYMVFEFMDGADLCFEIVKRADAGFVYSEAVASHYMRQILEALRYCHDNNIIHRDVKPHCVLLASKENSAPVKLGGFGVAIQLGESGLVAGGRVGTPHFMAPEVVKREPYGKPVDVWGCGVILFILLSGCLPFYGTKERLFEGIIKGKYKMNPRQWSHISESAKDLVRRMLMLDPAERITVYEALNHPWLKERDRYAYKIHLPETVEQLRKFNARRKLKGAVLAAVSSHKFNSFYGDPPEELPDFSEDPTSSGLLAAERAVSQVLDSLEEIHALTDCSEKDLDFLHSVFQDQHLHTLLDLYDKINTKSSPQIRNPPSDAVQRAKEVLEEISCYPENNDAKELKRILTQPHFMALLQTHDVVAHEVYSDEALRVTPPPTSPYLNGDSPESANGDMDMENVTRVRLVQFQKNTDEPMGITLKMNELNHCIVARIMHGGMIHRQGTLHVGDEIREINGISVANQTVEQLQKMLREMRGSITFKIVPSYRTQSSSCERDSPSTSRQSPANGHSSTNNSVSDLPSTTQPKGRQIYVRAQFEYDPAKDDLIPCKEAGIRFRVGDIIQIISKDDHNWWQGKLENSKNGTAGLIPSPELQEWRVACIAMEKTKQEQQASCTWFGKKKKQYKDKYLAKHNAVFDQLDLVTYEEVVKLPAFKRKTLVLLGAHGVGRRHIKNTLITKHPDRFAYPIPHTTRPPKKDEENGKNYYFVSHDQMMQDISNNEYLEYGSHEDAMYGTKLETIRKIHEQGLIAILDVEPQALKVLRTAEFAPFVVFIAAPTITPGLNEDESLQRLQKESDILQRTYAHYFDLTIINNEIDETIRHLEEAVELVCTAPQWVPVSWVY"}},
  "data": [
    {"variants_of": "B1", "settings": "with nrx1b_rat Nrxn1, Q63373", "values": [
      {"variant": "S24D;V26L", "effect of a mutation on the interaction": "decreasing interaction"}
    ]}
  ]
}
